This note sets out measurements from paper PMC9345960, “ERK1/2 inhibits Cullin 3/SPOP-mediated PrLZ ubiquitination and degradation to modulate prostate cancer progression” (Cell Death and Differentiation, 2022).

The test concerns the target T1, HA-SPOP, wild type (UniProt O43791 1-374).
T1 construct: SPOP (Speckle-type POZ protein); also called HA-SPOP WT; pcDNA3-HA-SPOP; source: 293T, transfected, in lysate; also purified from transfected 293T cells using HA-tag beads
As to the kind of experiment: pull-down; GST pull-down: purified GST-PrLZ and HA-SPOP or His-SPOP incubated 3 h at 4 °C, washed with RIPA buffer, western blot (Fig. 2c: antibody against His). The note with it: both partners purified. (In general: A western blot detects proteins with antibodies after separation by electrophoresis.)

T1 sequence (O43791 whole entry): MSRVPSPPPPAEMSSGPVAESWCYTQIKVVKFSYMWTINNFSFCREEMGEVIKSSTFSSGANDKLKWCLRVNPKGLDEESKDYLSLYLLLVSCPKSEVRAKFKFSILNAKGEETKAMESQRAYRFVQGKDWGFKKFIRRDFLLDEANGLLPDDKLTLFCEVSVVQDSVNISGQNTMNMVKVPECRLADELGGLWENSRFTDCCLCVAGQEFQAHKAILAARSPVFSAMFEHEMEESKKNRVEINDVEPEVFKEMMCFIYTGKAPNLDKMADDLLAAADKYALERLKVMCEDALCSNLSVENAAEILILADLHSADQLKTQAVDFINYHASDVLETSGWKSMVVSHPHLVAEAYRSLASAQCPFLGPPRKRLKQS

B1: GST-PrLZ, wild type (bacterial) (natural protein, UniProt P55327 1-224, looked up)
chain: MDCREMDLYEDYQSPFDFDAGVNKSYLYLSPSGNSSPPGSPTLQKFGLLRTDPVPEEGEDVAATISATETLSEEEQEELRRELAKVEEEIQTLSQVLAAKEKHLAEIKRKLGINSLQELKQNIAKGWQDVTATSAYKKTSETLSQAGQKASAAFSSVGSVITKKLEDVKNSPTFKSFEEKVENLKSKVGGTKPAGGDFGEVLNSAANASATTTEPLPEKTQESL
notes: Prostate Leucine Zipper (PrLZ); also called GST-PrLZ WT; pGEX-4T-1-GST-PrLZ; source: E. coli BL21, purified (Glutathione Sepharose 4B)
With B1, the binding result is recorded as “binds”.
